In US20050287643A1 (YALE UNIVERSITY, published 2005) one finds Kd and IC50 data, which are given here for three molecules.

One assay concerns the target KIX domain of CBP (Homo sapiens (Human), UniProt Q92793 587-666). The experiment in a line: method not stated (supplemental information).
Assay [1] concerns the target T1, Mena1-112 EVH1 domain (UniProt Q03173 1-112).
T1 construct: range 1-112
The assay can be described thus: fluorescence polarization competition against pGolemi^Flu. On the technique in general: In fluorescence polarisation assays a small probe gives low polarisation when free and higher when bound to something large.

In assay [2] the target is T1, Mena1-112 EVH1 domain. The assay can be described thus: tryptophan fluorescence perturbation.

T1 sequence (Q03173 1-112 limits assumed): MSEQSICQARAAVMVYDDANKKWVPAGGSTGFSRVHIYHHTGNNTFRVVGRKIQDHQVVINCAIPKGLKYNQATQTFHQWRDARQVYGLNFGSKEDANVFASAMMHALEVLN
Sequence of KIX domain of CBP (Q92793 587-666 limits assumed, form in doubt): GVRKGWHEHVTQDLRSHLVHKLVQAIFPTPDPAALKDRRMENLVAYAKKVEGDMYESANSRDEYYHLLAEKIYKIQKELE

As a reminder, the Kd is a measure of binding affinity in units of concentration. A higher Kd goes with lower affinity. In the assay with KIX domain of CBP, PFPPTPPGEEAPVEDLIRFYNDLQQYLNVV (designed binder) [pGolemi] showed a Kd of 15 µM.

B1: ActA11 (peptide)
peptide: FEFPPPPTDEE
notes: domain: PPII repeat 2; also called 11 residue peptide comprising PPII repeat 2 of L. monocytogenes ActA
By IC50 is commonly meant the concentration needed to halve the response being measured. Read a low IC50 as greater potency in that assay. Regarding B1, in the assay with Mena1-112 EVH1 domain [1], the IC50 came out at 4 µM.
Molecule PFPPTPP [PPII7] returned a Kd with Mena1-112 EVH1 domain [2] of 480 µM.
